The target in assay [1] is FtsX‐His (full‐length pneumococcal FtsX with a His6 tag) (Streptococcus pneumoniae). The assay is described as follows: cross-linking; FtsX‐His and FtsE‐His together in detergent micelles with glutaraldehyde; data not shown.
The target is the same in assay [2]. The assay is described as follows: cross-linking; FtsX‐His (5–10 μmol/L) with glutaraldehyde (0.5–2.0 mmol/L), 30–45 min, room temperature, 50 mmol/L HEPES pH 8.0, 200 mmol/L NaCl, 5% glycerol, 0.02% DDM, 0.02% C12E8; SDS‐PAGE, Coomassie.
For assay [3] the target is unchanged. The assay is described as follows: densitometry of Coomassie‐stained bands of purified nanodiscs; FtsX‐His reconstituted in MSPE3D1/soybean lipid nanodiscs, purified by Ni‐NTA and SEC; relative intensities of MSPE3D1 and FtsX‐His bands, assuming two MSPE3D1 per nanodisc.

Stoichiometry N and FtsX‐His molecules per nanodisc (molecules per nanodisc) data for one substance are collected here from article PMC5061712.

Turning to “FtsX‐His (full‐length pneumococcal FtsX with a His6 tag) (natural protein)”, the stoichiometry N in assay [1] and in assay [2] was 2 in each case. The FtsX‐His molecules per nanodisc (molecules per nanodisc) in assay [3] worked out at 1.5.
